The text below walks through data of patent US20090233993A1, “COMPOSITIONS AND METHODS FOR INHIBITING GSK3 ACTIVITY AND USES THEREOF” (Burnham Institute for Medical Research, priority 2008, published 2009).

One test has as its system Aβ generation. The experiment in a line: Aβ generation / APP processing in N2aSwe cells overexpressing FG01 (IP-Western blot). Format: cell-based, mouse. The method, then:
To investigate FG01's effects on Aβ generation, the His6-tagged recombinant FG01 was overexpressed in N2aSwe cells. The levels of βCTF, APP, sAPPα and secreted and intracellular Aβ were then quantified in the transfected cells and compared to those parental cells.
The His6-tagged FG01 was overexpressed in N2aSwe cells. The secreted and intracellular Aβ were immunoprecipitated by 4G8. The precipitated peptides and sAPPα, βCTF, full length APP and FG01 were analyzed by Western blots. α-tubulin was used as loading control. The levels of the proteins were quantified by densitometry and normalized and compared to those in vector transfected control.
To corroborate this, FG01 was over expressed in N2aSwe cells.

For a further test, the system named is β-secretase (BACE1). Put plainly: β-secretase (BACE1) in vitro activity and protein level in FG01-overexpressing cells. Format: cell-based, mouse. On the procedure:
The in vitro activity of β-secretase (BACE1) was assayed using a commercial kit (Calbiochem), following the manufacturer's protocol.
To determine whether FG01 reduces Aβ generation by modulating β-secretase activities, β-secretase (BACE1) activity and the protein level of BACE1 in vitro in FG01-overexpressing cells was examined and both were unchanged. FG01 cell clones identified by RHKO were treated with DMSO (control) or 2 μg/ml doxycycline for 72 hrs. In some experiments, N2a cells were transfected with control vector (Con) or FG01 vector for 48 hrs. Cell lysates were assayed for β-secretase activity. FG01 was transfected into N2a cells and equal protein lysates were subjected to SDS-PAGE and Western blot with antibodies against BACE1 (Yan et al., 2001), nicastrin (Leem et al., 2002) or Myc. APP βCTF accumulation can also be attributed to a decrease in γ-secretase-mediated cleavage.

A further test has as its system GSK-3α/β. The experiment in a line: phospho-GSK-3α/β Western blot in human HeLaSwe and HEK293 cells. Format: cell-based. The text has this: Expression of β-catenin, inactivated phospho-GSK-3β, total GSK-3, APP, β-CTF and FG01 in transfected human HEK293 cells were shown by Western blots.
Although the possibility that FG01 may modulate substrate specificity or accessibility to γ-secretase can not be excluded, it is equally possible that FG01 regulates other proteins/pathways functioning in APP processing and Aβ generation. […] Thus, the activities of GSK-3α/β were studied in the presence or absence of FG01 overexpression by examining levels of phospho-GSK-3α (Ser 21) and phospho-GSK-3β (Ser 9) (which represent inactivated forms of GSK-3) and by in vitro kinase assays.
Background: A western blot detects proteins with antibodies after separation by electrophoresis.

The subject of another test is tau. Put plainly: tau phosphorylation (Thr205, PHF-1) in N2aSwe cells cotransfected with human tau T40. Format: cell-based. The method, then: Since GSK-3 can phosphorylate tau at multiple sites, it was determined whether FG01 can affect tau phosphorylation by GSK-3. The human longest tau splicing variant T40 was cotransfected with FG01 or expression vector (control) into N2aSwe cells, and the tau phosphorylation examined at Thr205 and PHF-1 tauepitope (Ser396 and Ser404), which are GSK-3 phosphorylation targets and major paired helical filament (PHF) tau sites found in NFTs. […] In addition, little change was found in CDK5 protein level and its in vitro activity upon FG01 overexpression.
The human tau T40 was co-transfected with either FG01 or the expression vector into N2aSwe cells. The phospho-tau at Thr205 and PHF-1 and total tau proteins in the transfected cells were detected by Western blots (left). The levels of phospho-tau at the examined sites were quantified by densitometry and normalized to the total levels (right).
GSK-3 is a major kinase that phosphorylates tau in AD (Flaherty et al., 2000). […] N2aSwe cells were cotransfected with the human tau splice variant T40 and with FG01 (or control vectors), and examined tau phosphorylation at the threonine 205 site (Thr205) and the PHF-1 tau epitope sites (serine 396 and serine 404), which are GSK-3 phosphorylation targets, and at the major paired helical filament (PHF) sites found in NFTs. […] Protein levels and activity of CDK5, another kinase mediating tau phosphorylation in AD (Flaherty et al., 2000), was analyzed following FG01 overexpression. […] N2a cells were transfected with FG01 or a control vector (Con). Equal cell lysate proteins were used for assaying in vitro CDK5 activity.

In a further test the test system is CDK5. Put plainly: CDK5 levels by Western blot in transfected HeLa and MFB cells. Conditions: FG01-transfected HeLa and MFB cells. Format: cell-based, mouse and human. An excerpt: The expression of CDK5, FG01 and α-tubulin were detected by Western blots in transfected HeLa and MFB cells.
In a further test the test system is PKA. Put plainly: PKA in vitro activity and CREB phosphorylation in FG01-transfected cells. It counts as cell-based, mouse. The method, then: After lysis, cell lysates were assayed for PKA activity, using a commercial kit and following the manufacturer's protocol (Upstate, catalog number 17-134). n=4.
(§1) Commercial kits were used to assay in vitro activities of GSK-3β (Sigma) and PKA (Upstate). For GSK-3α activity, a commercial GSK-3β activity assay kit was used but the procedure to immunoprecititate GSK-3β was replaced with immunoprecipitation of GSK-3α using an anti-GSK-3α antibody (Cell Signaling). cAMP levels were assayed using a commercial kit (Biovision).
Inhibition of GSK-3 activity via phosphorylation of serine 21 in GSK-3α and serine 9 in GSK-3β can be mediated by protein kinase A (PKA) (Fang et al., 2000), so whether FG01 regulates PKA activity was studied. […] Moreover, increased sAPPα secretion upon FG01 overexpression (FIG. 29A) is also likely due to PKA activation, because PKA can stimulate budding of APP-containing vesicles from the Trans-Golgi Network (TGN) and facilitates sAPPα generation (Xu et al., 1996).

The subject of another test is cAMP levels. The experiment in a line: cAMP assay in rat PC12 cells. It counts as cell-based. The following applies: FG01 overexpression. The method, then: as §1
A general note: Cyclic AMP is a second messenger, typically raised through Gs and lowered through Gi signalling.

Another test deals with β-catenin. The experiment in a line: β-catenin level in mouse N2a cells (Western blot). It counts as cell-based. The following applies: FG01 overexpression. An excerpt: The levels of total GSK-3 were used as normalization factors.
The subject of another test is APP. Put plainly: APP trafficking to cell surface (biotinylation) in N2a/swe cells. Format: cell-based, mouse. The following applies: FG01-transfected N2a/swe cells. The text has this: After treated with biotin or DMSO, membrane protein and total cell lysates were subjected to Western blots for APP.
Setting [1] is: FG01 overexpression in N2aSwe cells.
[2] abbreviates: human tau T40 cotransfected with FG01.

“Also recorded” adds a separate entry of the source.

B1: FG01: 141 amino acid transmembrane protein encoded by mouse retrogene fg01 (SEQ ID NO:2); expressed from transfected vector or transgene (protein)
chain: MQSQQRNIGYFNHLKADSRNITYSMTFSTKSSNQNFIIFLNEVQAAIIGHERCDLLPVLNELHPDALPDGRIWLFGLNPYFFQHNSLCMRGTPKRIGLQGCAQVGFLVLFVMPLLIPSVTAELPGSSETTTLAHLAGATGP
modifications: Myc and His6 tags; homo sapien
notes: expressed from transfected vector or transgene
As for B1, the “Aβ production in the presence of lithium” value with Aβ generation (FG01-transfected N2aSwe cells, 5 mM LiCl 4 hrs) is given as “could not further reduce”. In the test with Aβ generation (setting [1]), the “levels of extracellular and intracellular Aβ” value is given as “dramatically reduced”; the “levels of total APP” value is given as “not affected”; the sAPPα level entry is “stimulated; also recorded: greatly increased”; the βCTF level entry was “greatly accumulated; also recorded: greatly increased”. Moreover, the “levels of secreted and intracellular Aβ, reduction” value in the test with Aβ generation (His6-tagged FG01 overexpressed in N2aSwe cells vs control, Aβ40 and 42 equally reduced) is on record as “more than 50%”. Besides, the “Aβ levels in LiCl-pretreated cells” value with Aβ generation (N2a/swe cells pretreated with 5 mM LiCl for 24 hrs before FG01 transfection) is “did not further decrease”. Moreover, in the test on β-secretase (BACE1) (FG01-overexpressing N2a cells, Western blot), the “protein level of BACE1” value is recorded as “unchanged”. In addition, the “β-secretase (BACE1) activity” value in the test on β-secretase (BACE1) (in vitro assay, FG01-overexpressing cells) was “did not significantly change; also recorded: unchanged”. In the test on GSK-3α/β (FG01 expression, human HEK293 cells, Western blot), the “GSK-3 activities (inactivated phospho-GSK-3β)” value is reported as “decreases”. For the same molecule, the “phospho-GSK-3α (Ser21) and phospho-GSK-3β (Ser9) levels” value in the test with GSK-3α/β (FG01 overexpression, human HeLaSwe and HEK293 cells) is on record as “more highly phosphorylated”. Moreover, in the test on tau (setting [2]), the total tau levels entry is on record as “without affecting” and the unphosphorylated tau levels entry is recorded as “increased”. For the same molecule, in the test with tau (human tau T40 cotransfected with FG01 in N2aSwe cells), the “tau phosphorylation at GSK-3 target sites” value is “significantly decreased”. For the same molecule, the “decrease of tau phosphorylation at Thr205 and PHF-1 epitope (Ser396, Ser404)” value with tau (human tau T40 cotransfected with FG01 in N2aSwe cells, densitometry) was roughly 60%. The “levels of CDK5” value with CDK5 is reported as “did not change”. In the test with PKA (FG01-transfected N2a/Swe cells vs control), the PKA activity entry is on record as “significantly increase; also recorded: significantly more PKA activity”. For the same molecule, in the test on PKA (FG01 overexpression), the “phosphorylation of CREB (PKA substrate)” value was “increased”. In the test with cAMP levels, the “increase of cAMP levels” value is reported as 75%. Further, the “level of β-catenin” value in the test on β-catenin is “increases”. In the test on APP, the “APP trafficking to cell surface” value was “stimulates”.
